Stoichiometry N data for 1 substance are collected here from paper doi:10.1101/545921.

The target of this experiment is AtGAPC1 C149S mutant (Arabidopsis thaliana). Kind of experiment: dynamic light scattering.

What is called stoichiometry N is the number of molecules, sites or subunits per partner or assembly. As to AtGAPC1 C149S mutant (enzyme), the stoichiometry N is 4.
